Here are results for 6 molecules from patent publication US20050002923A1 (published 2005).

Data set [1] relates to UvrA (Bca) (Bacillus caldotenax). To be noted: UV damage, 200 J/m2; ATPase; 13.2 without DNA; 37 C.
Data set [2] addresses UvrA2 Δβh UvrB (Bca) UvrB deletion Gln97-Asp112 replaced by Gly (Bacillus caldotenax) (UniProt P56981). To be noted: UV damage, 200 J/m2; ATPase; 19.0 without DNA.
For data set [3], the system named is UvrA2UvrB (Bca) (Bacillus caldotenax). To be noted: UV damage, 200 J/m2; ATPase; 18.3 without DNA.
In data set [4] the test system is UvrA (Bca) (Bacillus caldotenax). As to conditions: ATPase stimulated about 10-fold by 5.6 nM dsDNA (control 4.42; 18.4 at 0.224 nM), 37 C.
Data set [5] has as its system UvrA (Eco) (Escherichia coli). To be noted: ATPase inhibited 23% by 0.224 nM dsDNA (control 71.5), 37 C.
For data set [6], the system named is Eco UvrA + Eco UvrB + Eco UvrC (Escherichia coli). The data set is described as follows: cleavage_in_vitro. To be noted: central (+)-trans-BPDE-N2-guanine adduct; 37 C 20 min; abolished by UvrA preincubation at 65 C for 10 min; figure legend says cis adduct, text says trans.
Data set [7] concerns Bca UvrA + Eco UvrB + Eco UvrC (Bacillus caldotenax / Escherichia coli). The data set is described as follows: cleavage_in_vitro. As to conditions: central (+)-trans-BPDE-N2-guanine adduct; 10 nM UvrA, 100 nM UvrB, 5 nM UvrC, 37 C 20 min; 83% and 60% after UvrA preincubation at 65 C for 10 and 30 min; figure legend says cis adduct, text says trans.
Data set [8] addresses Bca UvrA + Eco UvrB (Bacillus caldotenax / Escherichia coli) (UniProt P0A8F8). The data set is described as follows: EMSA. As to conditions: central (+)-trans-BPDE-N2-guanine adduct; 10 nM UvrA, 100 nM Eco UvrB, 1 mM ATP, 10 mM MgCl2, 37 C; all substrate bound at 250 nM Eco UvrB. For orientation: In EMSA bound probe runs differently from free probe, usually more slowly.
The test system of data set [9] is UvrA (Bca) (Bacillus caldotenax). The data set is described as follows: EMSA. As to conditions: central (+)-trans-BPDE-N2-guanine adduct; ABC buffer, 10 mM MgCl2, 1 mM ATP, 37 C, 20 min; fitted as UvrA dimer.
Data set [10] relates to UvrA (Eco) (Escherichia coli). The data set is described as follows: EMSA. To be noted: central (+)-trans-BPDE-N2-guanine adduct; CITED Zou et al. 1998; cited from earlier work.
In data set [11] the target is T1, Bacillus caldotenax (Bca) UvrA protein.
T1 chain: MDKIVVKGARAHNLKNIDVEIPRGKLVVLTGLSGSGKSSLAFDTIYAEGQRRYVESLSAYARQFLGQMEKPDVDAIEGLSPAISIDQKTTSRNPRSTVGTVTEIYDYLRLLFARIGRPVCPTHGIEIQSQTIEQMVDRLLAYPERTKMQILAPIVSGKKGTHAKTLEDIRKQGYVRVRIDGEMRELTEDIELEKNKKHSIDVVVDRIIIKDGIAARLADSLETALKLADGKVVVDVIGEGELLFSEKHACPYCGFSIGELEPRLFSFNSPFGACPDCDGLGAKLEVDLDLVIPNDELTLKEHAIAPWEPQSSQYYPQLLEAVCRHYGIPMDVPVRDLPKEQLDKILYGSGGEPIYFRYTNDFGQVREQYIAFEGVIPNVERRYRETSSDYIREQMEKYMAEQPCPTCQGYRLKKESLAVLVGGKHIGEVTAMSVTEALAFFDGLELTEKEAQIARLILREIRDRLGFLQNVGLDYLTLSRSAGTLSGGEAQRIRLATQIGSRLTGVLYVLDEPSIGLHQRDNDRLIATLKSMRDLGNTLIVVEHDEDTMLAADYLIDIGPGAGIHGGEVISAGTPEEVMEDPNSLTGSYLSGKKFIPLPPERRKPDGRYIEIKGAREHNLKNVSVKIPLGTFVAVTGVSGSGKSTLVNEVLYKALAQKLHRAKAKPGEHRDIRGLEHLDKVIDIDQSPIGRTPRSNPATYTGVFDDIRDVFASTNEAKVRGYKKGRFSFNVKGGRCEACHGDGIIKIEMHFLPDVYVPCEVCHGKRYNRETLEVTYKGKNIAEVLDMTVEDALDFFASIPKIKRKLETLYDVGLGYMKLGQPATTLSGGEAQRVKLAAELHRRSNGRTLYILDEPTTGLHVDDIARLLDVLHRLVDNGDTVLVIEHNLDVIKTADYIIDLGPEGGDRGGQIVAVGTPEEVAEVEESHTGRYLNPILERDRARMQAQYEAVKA

The next data set addresses T2, E. coli UvrB protein (Escherichia coli, UniProt A7ZJI8 1-673).
T2 construct: also called Eco UvrB; UvrB (Eco)
T2 sequence: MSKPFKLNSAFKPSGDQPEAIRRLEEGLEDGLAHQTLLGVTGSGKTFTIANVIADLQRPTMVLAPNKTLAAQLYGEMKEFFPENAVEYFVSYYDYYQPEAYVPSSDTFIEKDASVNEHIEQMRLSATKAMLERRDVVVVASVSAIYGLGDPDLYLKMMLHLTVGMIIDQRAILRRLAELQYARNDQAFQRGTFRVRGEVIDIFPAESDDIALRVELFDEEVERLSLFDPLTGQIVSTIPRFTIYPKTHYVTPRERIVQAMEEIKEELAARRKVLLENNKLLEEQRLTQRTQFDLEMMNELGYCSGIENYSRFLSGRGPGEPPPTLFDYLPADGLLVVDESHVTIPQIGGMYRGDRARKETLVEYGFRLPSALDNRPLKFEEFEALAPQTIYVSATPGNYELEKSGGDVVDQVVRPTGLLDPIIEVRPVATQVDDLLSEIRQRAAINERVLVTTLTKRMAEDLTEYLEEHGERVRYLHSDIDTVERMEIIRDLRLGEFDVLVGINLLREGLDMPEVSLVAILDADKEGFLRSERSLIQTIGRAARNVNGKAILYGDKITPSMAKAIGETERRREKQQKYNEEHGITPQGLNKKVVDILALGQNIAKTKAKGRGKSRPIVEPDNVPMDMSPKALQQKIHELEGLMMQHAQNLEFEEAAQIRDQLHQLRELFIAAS
The data set can be described thus: gel mobility shift with BPDE-DNA substrate, 37° C.

As for UV-irradiated pUC18 DNA, the activity (mol ATP/mol protein/min) in [1] was found to be 17; in data set [2] it was 29; in data set [3], 22.

Regarding pGL-2 plasmid DNA (undamaged), the activity (uM ADP/min/uM UvrA) was 45.6 in data set [4] and 55.4 in [5].

Turning to (+)-trans-BPDE-N2-dG 50-bp duplex, the activity in data set [6] amounted to 67 % incised; in data set [7], 89 % incised. In data set [8], the binding (% bound as UvrB-DNA) is over 50. Also, the Kd was 25 nM in data set [9] and 7.5 nM in [10].

B1: β-hairpin deletion mutant of B. caldotenax UvrB (Δβh UvrB) (protein)
chain: VEGRFQLVAPYEPQGDQPQAIAKLVDGLRRGVKHQTLLGATGTGKTFTISNVIAQVNKPTLVIAHNKTLAGQLYSELKEFFPHNAVEYFVSYYDYYGAKINDEIDKLRHSATSALFERRDVIIVASVSCIYGLGSPEEYRELVVSLRVGMEIERNALLRRLVDIQYDRNDIDFRRGTFRVRGDVVEIFPASRDEHCIRVEFFGDEIERIREVDALTGEVLGEREHVAIFPASHFVTREEKMRLAIQNIEQELEERLAELRAQGKLLEAQRLEQRTRYDLEMMREMGFCSGIENYSRHLALRPPGSTPYTLLDYFPDDFLIIVDESHVTLPQLRGMYNGDRARKQVLVDHGFRLPSALDNRPLTFEEFEQKINQIIYVSATPGPYELEHSPGVVEQIIRPTGLLDPTIDVRPTKGQIDDLIGEIRERVERNERTLVTTLTKKMAEDLTDYLKEAGIKVAYLHSEIKTLERIEIIRDLRLGKYDVLVGINLLREGLDIPEVSLVAILDADKEGFLRSERSLIQTIGRAARNANGHVIMYADTITKSMEIAIQETKRRRAIQEEYNRKHGIVPRTVKKEIRDVIRATYAAEETEMYEAKPAAAMTKQEREELIRTLEAEMKEAAKALDFERAAQLRDIIFELKAEG
Regarding B1, in data set [11], the ATPase activity (mol of ATP hydrolyzed/mol of protein/min) was determined as 19 and the ATPase activity (with UV-irradiated DNA) (mol of ATP hydrolyzed/mol of protein/min) worked out at 29.

B2: Bacillus caldotenax (Bca) UvrB protein, wild type (protein)
chain: VEGRFQLVAPYEPQGDQPQAIAKLVDGLRRGVKHQTLLGATGTGKTFTISNVIAQVNKPTLVIAHNKTLAGQLYSELKEFFPHNAVEYFVSYYDYYQPEAYVPQTDTYIEKDAKINDEIDKLRHSATSALFERRDVIIVASVSCIYGLGSPEEYRELVVSLRVGMEIERNALLRRLVDIQYDRNDIDFRRGTFRVRGDVVEIFPASRDEHCIRVEFFGDEIERIREVDALTGEVLGEREHVAIFPASHFVTREEKMRLAIQNIEQELEERLAELRAQGKLLEAQRLEQRTRYDLEMMREMGFCSGIENYSRHLALRPPGSTPYTLLDYFPDDFLIIVDESHVTLPQLRGMYNGDRARKQVLVDHGFRLPSALDNRPLTFEEFEQKINQIIYVSATPGPYELEHSPGVVEQIIRPTGLLDPTIDVRPTKGQIDDLIGEIRERVERNERTLVTTLTKKMAEDLTDYLKEAGIKVAYLHSEIKTLERIEIIRDLRLGKYDVLVGINLLREGLDIPEVSLVAILDADKEGFLRSERSLIQTIGRAARNANGHVIMYADTITKSMEIAIQETKRRRAIQEEYNRKHGIVPRTVKKEIRDVIRATYAAEETEMYEAKPAAAMTKQEREELIRTLEAEMKEAAKALDFERAAQLRDIIFELKAEG
In [11], B2 registered an ATPase activity (mol of ATP hydrolyzed/mol of protein/min) of 18.3 and an ATPase activity (with UV-irradiated DNA) (mol of ATP hydrolyzed/mol of protein/min) of 22.

B3: Bacillus caldotenax (Bca) UvrA protein (enzyme)
chain: MDKIVVKGARAHNLKNIDVEIPRGKLVVLTGLSGSGKSSLAFDTIYAEGQRRYVESLSAYARQFLGQMEKPDVDAIEGLSPAISIDQKTTSRNPRSTVGTVTEIYDYLRLLFARIGRPVCPTHGIEIQSQTIEQMVDRLLAYPERTKMQILAPIVSGKKGTHAKTLEDIRKQGYVRVRIDGEMRELTEDIELEKNKKHSIDVVVDRIIIKDGIAARLADSLETALKLADGKVVVDVIGEGELLFSEKHACPYCGFSIGELEPRLFSFNSPFGACPDCDGLGAKLEVDLDLVIPNDELTLKEHAIAPWEPQSSQYYPQLLEAVCRHYGIPMDVPVRDLPKEQLDKILYGSGGEPIYFRYTNDFGQVREQYIAFEGVIPNVERRYRETSSDYIREQMEKYMAEQPCPTCQGYRLKKESLAVLVGGKHIGEVTAMSVTEALAFFDGLELTEKEAQIARLILREIRDRLGFLQNVGLDYLTLSRSAGTLSGGEAQRIRLATQIGSRLTGVLYVLDEPSIGLHQRDNDRLIATLKSMRDLGNTLIVVEHDEDTMLAADYLIDIGPGAGIHGGEVISAGTPEEVMEDPNSLTGSYLSGKKFIPLPPERRKPDGRYIEIKGAREHNLKNVSVKIPLGTFVAVTGVSGSGKSTLVNEVLYKALAQKLHRAKAKPGEHRDIRGLEHLDKVIDIDQSPIGRTPRSNPATYTGVFDDIRDVFASTNEAKVRGYKKGRFSFNVKGGRCEACHGDGIIKIEMHFLPDVYVPCEVCHGKRYNRETLEVTYKGKNIAEVLDMTVEDALDFFASIPKIKRKLETLYDVGLGYMKLGQPATTLSGGEAQRVKLAAELHRRSNGRTLYILDEPTTGLHVDDIARLLDVLHRLVDNGDTVLVIEHNLDVIKTADYIIDLGPEGGDRGGQIVAVGTPEEVAEVEESHTGRYLNPILERDRARMQAQYEAVKA
notes: Full-length recombinant protein made in E. coli as a UvrA-intein-CBD fusion and released by DTT cleavage; also called B. caldotenax UvrA; UvrASD
Turning to B3, in the data set with E. coli UvrB protein, the binding result was “binds”.

The Kd is a measure of binding affinity in units of concentration.
